# Test results as given in publication PMC12472674 (Nanomaterials, 2025).
# Key:
# [1] = Solubility of SMG in release medium; assay type: physicochemical
# [2] = healthy subjects, SC injection; cited from earlier work
# From the text: SMG is a 31-amino acid peptide with a molecular weight of 4113.58 Da, structurally derived from native GLP-1 by substitutions at positions 8 (alanine to α-aminoisobutyric acid) and 34 (lysine to arginine), and acylation of the lysine residue at position 26 with a C18 fatty diacid chain. These modifications enhance albu ...
# [3] = Octanol–water partition coefficient (logP), shake-flask method; assay type: physicochemical; settings: mutually saturated n-octanol/distilled water, 10 mg freeze-dried complex in 10 mL of each phase, stirred 400 rpm 24 h, 25 °C, HPLC-UV 230 nm, SMG 5.36 mg/mL, in the presence of Zn 0.5 mg/mL (Figure 2a), mean, n = 3
# Method: The prepared SMG–PS–Zn complex suspensions were stored at −80 °C for 24 h, then freeze-dried using a lyophilizer (TFD 8501, Ilshinbiobase Co. Ltd., Dongducheon-si, Republic of Korea) at −80 °C and under a vacuum of <10 mTorr for 24 h to obtain dried samples. Then, the octanol–water partition coefficient (logP) was determined using the classical shake-flask method. Equal volumes of n-octanol and distilled water were mutually saturated by vigorous mixing and phase separation. Ten milligrams of freeze-dried complexes were placed in a 20 mL scintillation vial, followed by the addition of 10 mL each of the pre-saturated octanol and water phases. The vial was sealed and stirred at 400 rpm for 24 h to reach equilibrium. After incubation, the mixture was centrifuged at 13,000 rpm to separate the phases. The octanol phase was diluted 10-fold with methanol, and the aqueous phase was diluted 10-fold with the mobile phase. Drug concentrations in both phases were quantified using high-performance liquid chromatography (HPLC) analysis, and logP was calculated as the logarithm of the ratio of drug concentration in octanol to that in water.
# The concentration of SMG in the complex suspension was quantified by reversed phase-HPLC, with minor modifications to previously reported methods. […] The limits of detection and quantification were 0.523 μg/mL and 1.569 μg/mL, respectively.
substance,measurement,setting,value
Semaglutide [SMG],Solubility in PBS (pH 7.4) release medium,[1],26.8 mg/mL
same,Elimination half-life,[2],approximately 7 days
same,logP (octanol/distilled water),[3],approximately −4.7
